* marks the point of attachment. Dnp = O=[N+]([O-])c1ccc(*)c([N+](=O)[O-])c1; Mca = COc1ccc2c(CC(=O)*)cc(=O)oc2c1
Key:
caspase 3 [1] = test: Caspase 3 activation in camptothecin-treated U937 cells, antibody capture and Ac-DEVD-AFC cleavage; type: cell-based, human; details: U937 5×10^5 cells/ml, 4 μg/ml camptothecin, after 2 h
Procedure: In order to induce apoptosis in a cellular system, human cells (U937; human histiolytic lymphoma […]) were treated with camptothecin (Topoisomerase I inhibitor, chemotherapeutic agent). […] In order to detect the protease activated by apoptosis (caspase 3), ca. 10^6 cells were withdrawn from the treated cell culture and lysed in lysis buffer (50 mM NaPO4, 10 mM NaCl, 1 mM […], 0.25% (w/v) Nonidet P40, 0.3 mM EDTA; pH 7.8) on ice. The lysate is then contacted with an antibody directed against caspase 3 which is coupled to a solid phase and binds caspase 3 from the lysate for the specific caspase 3 analysis. After removing the supernatant (contains all unspecific components and enzymes), a substrate (50 μM Ac-DEVD-AFC) is added and its caspase 3 mediated substrate conversion is measured by the formation of the fluorescent coumarin cleavage product. After subtraction of the blank value (self fluorescence of the substrate without lysate addition), the kinetic course of the caspase 3 activity can be shown graphically (FIG. 1).

caspase 3 [2] = target: T1, caspase 3 (Homo sapiens, UniProt P42574); test: Selection of the optimal fluorescent substrate; type: biochemical
T1 construct: endogenous in cells; host or cells: cell lysates with and without camptothecin induction (cell model U937/CAM)
T1 sequence (P42574 29-175 limits assumed): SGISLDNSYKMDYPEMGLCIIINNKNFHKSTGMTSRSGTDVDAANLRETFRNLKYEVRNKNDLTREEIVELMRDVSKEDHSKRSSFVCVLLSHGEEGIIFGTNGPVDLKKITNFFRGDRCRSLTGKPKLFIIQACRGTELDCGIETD
T1 sequence (P42574 176-277 limits assumed): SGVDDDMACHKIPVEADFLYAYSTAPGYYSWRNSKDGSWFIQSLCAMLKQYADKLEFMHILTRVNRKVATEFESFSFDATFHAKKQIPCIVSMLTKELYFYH
Procedure: Three fluorescent substrates were tested. They are acetyl-Asp-Glu-Val-Asp-7-amido-4-trifluoromethyl-coumarin (AFC), acetyl-Asp-Glu-Val-Asp-7-amido-4-methyl-coumarin (AMC) and (7-methoxycoumarin-4-yl)acetyl-Asp-Glu-Val-Asp-Ala-Pro-Lys(2,4-dinitrophenyl)OH (Mca). The three substrates were compared with one another using the assessment criteria i) background ii) signal level and iii) signal ratio from ± induction.

signal level (caspase 3 [2])	signal ratio from ± induction (caspase 3 [2])	background (self-fluorescence of the substrate without lysate addition) (caspase 3 [2])	Compound	protease activity (caspase 3) (caspase 3 [1])
			CC[C@@]1(O)C(=O)OCc2c1cc1n(c2=O)Cc2cc3ccccc3nc2-1 [camptothecin]	increase of protease activity
low signal levels	somewhat better ratio		(7-methoxycoumarin-4-yl)acetyl-Asp-Glu-Val-Asp-Ala-Pro-Lys(2,4-dinitrophenyl)OH (Mca-DEVDAPK(Dnp)-OH; SMILES COc1ccc2c(CC(=O)N[C@@H](CC(=O)O)C(=O)N[C@@H](CCC(=O)O)C(=O)N[C@H](C(=O)N[C@@H](CC(=O)O)C(=O)N[C@@H](C)C(=O)N3CCC[C@H]3C(=O)N[C@@H](CCCCNc3ccc([N+](=O)[O-])cc3[N+](=O)[O-])C(=O)O)C(C)C)cc(=O)oc2c1)	
highest signals		relatively high	acetyl-Asp-Glu-Val-Asp-7-amido-4-methyl-coumarin [AMC]	
very good signal yield	optimal ratio		acetyl-Asp-Glu-Val-Asp-7-amido-4-trifluoromethyl-coumarin [AFC]	

Source: patent US20020012945A1, “METHOD AND REAGENT FOR THE DETECTION OF APOPTOTIC CELLS AND OF A PROTEASE ACTIVATED DURING APOPTOSIS” (priority 1998, published 2002)
